Measured values reported in the nanobody polyreactivity screen of Harvey et al. (2022).

Test: yeast display, Sf9 membrane polyspecificity reagent, FACS + sequencing; frameworks hold sequencing errors
Summary of the method: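 Nanobodies came from a synthetic yeast display library in Saccharomyces cerevisiae BJ5465, induced with galactose for 36–48 hours and stained for 1 hour at 4 °C with 10% biotinylated, detergent-solubilized Sf9 membrane reagent. Cells were enriched on streptavidin microbeads and then FACS-sorted, with low and high (top ~1%) gates set on anti-HA fluorescence for expression and streptavidin fluorescence for reagent binding. Each polyreactivity label reflects the gate a clone came from. Genes were amplified by colony PCR, sequenced by MiSeq 2 × 250 and filtered by CDR length.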

Sequence | polyreactivity (PSR sort gate)
QVQLVESGGGLVQAGGSLRLSCAASGITLYRYTMGWDRQAPGTEREFVAAISRSGGSTYYADSVKGRFTISRDNEKNTVYVQMNSLKPEDTAVYYCAARWYEKTTRPYGSWGQGTQVTVSS | high polyreactivity
QVQLVESGGGLVQAGGSLRLSCAASGITSKQYAMGWYRQAPGKEWELVAAISGSGTRTYYADSVKGRFTISRDNAKNTVYLQMNSQKPEDTAVYYCAAYYHLVVKRLRYDYWGQGTQVTVSS | high polyreactivity
QVQLVESGGGLVQAGGSLRLSCAASGITSNTYAKGWYRQATGKERELVATITSGGSTNYADSVKGRFTISRDNAKNTVYLQMNSLKPEDTAVYFCNREYWLPTQFDYWGQGTQVTVSS | low polyreactivity
QVQLVESGGGLVQAGGSLRLSCAASGITSPSYAMGWYRQAPGKERELVAAISTSGGDTYYADSVKGRFTISRDKAKNTVYLQMNSLKPEDTAVYYCAAPVPAYQYYYRLKSFGRRYDHWGQGTQVTVSS | low polyreactivity
QVQLVESGGGLVQAGGSLRLSCAASGITSVDYAMRWYRQAPGKERELVAAITWSDSSTYYADSVKGRFTISRDNAKNTVYLQMNSLKPEDTAVYYCAAEYYFWGWEFDYWGQGTQVTVSS | high polyreactivity
QVQLVESGGGLVQAGGSLRLSCAASGITTRTYAMGWYRQAPGKDRELVAAISDSGDRTYYADSVKGRCTISRDKAKNTVYLQMNSLKPEDTAVYYCAVDAPGPRGEYWGQGTKVTVSS | low polyreactivity
QVQLVESGGGLVQAGGSLRLSCAASGITVALNAMGWYRQAPGKERELVAAISWSGDSTYYADSVKGRFTISRDNAKNTVYLQMNSLKPEDTAVYYCNTYPRRFFYSQRYDYWGQGTQVTVSS | low polyreactivity
QVQLVESGGGLVQAGGSLRLSCAASGITVDYYVMGWYRQAPGKERELVASIDSGGRTKYADSVKGRFTISRDNAKNTVYLQMNILKPEDTAVYYCAARSYVFRSRWIRWPKYWGQGTQVTVSS | high polyreactivity
QVQLVESGGGLVQAGGSLRLSCAASGITVWIYAMGWYRQAPGKERELVAAITGRGGSTYYADSVKGRFTISRDKAKNTLYLQRNSLKPEDTAVYYCAAESWYSTYDYWGQGTQVTVSS | high polyreactivity
QVQLVESGGGLVQAGGSLRLSCAASGITYGYVMGLYRQAPGKERELVAAISYRGGSTYYADSVKGRFTISRDNAKNTVYLQMNSLKPEDTAVYYCATEASGKTYGYVAYDYWGQGTQVTVSS | high polyreactivity
QVQLVESGGGLVQAGGSLRLSCAASGITYTVYAMGWYRQAPGKERELVAVINESGGSTYYADSVKGRFTISRDNAKNTVYLQMNSLKPEDTAVYYCNKTRVYVSSTYDYWGLGTQVTVSS | low polyreactivity
QVQLVESGGGLVQAGGSLRLSCAASGIYAYVMGWYRPAPGKERELVAAISGTGGRTYYADSVKGRFTISRDNAKNTVYLQMNSLKPEDTAVYYCAARGIYQPKTFDYWGQGTQVTVSS | high polyreactivity
QVQLVESGGGLVQAGGSLRLSCAASGKTFDPNAMGWYIPAPGKEREFVAAIATIGSSTYYADSVKGRFTMSRDNAKNTVYLPMTCLKPEDSAVYYCAKGIYVVYGIDDYWGQGTQVTVSS | low polyreactivity
QVQLVESGGGLVQAGGSLRLSCAASGKTFVYYTMGWYRQAPGKERELVAAISYSGGSTYYADSVKGRFTLSRDNAKNTVYLQMNSLKPEDTAVYYCAKQVADRYDYWGQGTQVTVSS | low polyreactivity
QVQLVESGGGLVQAGGSLRLSCAASGLICTPYAMGWYRQSPGKERELVAAISVSGGRTYYADSVKGRFTISRDNAKNTVYLQMNSLKREDTAVYYCAAALPYGYEYWGQGTQVTVSS | high polyreactivity
QVQLVESGGGLVQAGGSLRLSCAASGLIFAEYAMGWYRQAPGKERELVARITSAGSTDYADSVKGRFTISRDNAKNTVYLQMNSLKPEDTAVYYCAARYYSQDKNASTASDFDYWGQGTQVTVSS | low polyreactivity
QVQLVESGGGLVQAGGSLRLSCAASGLIFAEYAMGWYRQAPGKERELVARITSGGSTDYADSVKGRFTISRDNAKNTVYLQMNRLKPEDTAVYYCSARYYSQDKNASTASDFDYWGQGTQVTVSS | low polyreactivity
QVQLVESGGGLVQAGGSLRLSCAASGLIFAGNDMGWYRQAPGKERELVARITNGGGSTYYADSVKGRFTISRDNAKNTVYLQMNSLKPEDTAVYYCNAGRSSGYSYDSWGPGTQVTVSS | low polyreactivity
QVQLVESGGGLVQAGGSLRLSCAASGLIFAIYAMGWYRKAPGKERELVAAISSGGGRTYYADSVKGRFTISRDNAKNTVYLQMNSLKPEDTAVYYCNARYRTVRSGGEYWVLMDYWGQGTQVTVSS | high polyreactivity
QVQLVESGGGLVQAGGSLRLSCAASGLIFANNAMGWYRQAPGKERELVAVISRGGRTYYADSVKGRFTISRDNAKNTVYLQMNSLKPEDTAVYYCAKPVLVGLGARYVYWGQGTQVTVSS | high polyreactivity
QVQLVESGGGLVQAGGSLRLSCAASGLIFASYAMGWYRQAPGKERELVAAITSSGGSTYYADSVKGRFTISRDNAKNTVYLQMNSLKPEDTAVYYCAADIYTYNLFYHWSWLDYNYWGQGTQVTVSS | high polyreactivity
QVQLVESGGGLVQAGGSLRLSCAASGLIFDANAMGWYRLAPVKERELVAAITGSGGRTYSADSVKGRFTISRDTANYTVYCQMNCLKPEATGVYYCAASSKRKVLYNYWGQGTQVTVSS | high polyreactivity

Sequence | polyreactivity (PSR sort gate)
QVQLVESGGGLVQAGGSLRLSCAASGLIFDPNTMGWYRQAPGKERELVAAISSGGDTNYADSVKGRFTISRDNAKNTVYLQMNSQKPEDTAVYYCATDIRFHDPSEYEGVHFEYWGQGTQVTVSS | low polyreactivity
QVQLVESGGGLVQAGGSLRLSCAASGLIFEYYAMGWYRQAPGKERELVAVINWSGASTYYADSVKGRFTISRDNAKNTVYLQMNSLKPEDTAVYYCAAGVLITGLRFDYWGQGTQVTVSS | low polyreactivity
QVQLVESGGGLVQAGGSLRLSCAASGLIFGINAMGWYRQAPGKERELVASISRSTTRTYYADSVKGRFTISRDNAKNTVYLQMNSLKPEDTAVYYCAARQSPNRWMGYWGQGTQVTVSS | high polyreactivity
QVQLVESGGGLVQAGGSLRLSCAASGLIFGPNAMGWYRQSPGKERELVAAITKSGDSTYYADSVKGRFTISRDNAKNTVYLQMNSLKPEDTAVYYCAADTTTGLYDYWGQGTQVTVSS | low polyreactivity
QVQLVESGGGLVQAGGSLRLSCAASGLIFGPYAVGWYRQAPGKERELVAGISRGGSTYYADSVKGRFTISRDNAKKTVYLQMNSLKPEDTAVYYCAASRRYRGVNRPGDYWGQGTQVTVSS | high polyreactivity
QVQLVESGGGLVQAGGSLRLSCAASGLIFGRNVMGWYRQAPGKERELVAAISWSGGRTYYADSVKGRFTISRDNEKNTVYLQMNSLKPEDTAVYYCAAGYPYYYWTPYYYWGQGTQVTVSS | high polyreactivity
QVQLVESGGGLVQAGGSLRLSCAASGLIFGVNAMGWYRQAPGKERELVAVISRGGRTNYADSVKGRFTISRDNAKNTVYLQMNSLKPEDTAVYYCATYYTNKVPARYYWGQGTQVTVSS | high polyreactivity
QVQLVESGGGLVQAGGSLRLSCAASGLIFGVYAMGWYRQAPGKESELVAAISKNGDRTYYADSVKGRFTISRDNAKNTVYLQMNCLKPEDTAVYYCAAVWARSTYGPYYYWGQGTQVTVSS | high polyreactivity
QVQLVESGGGLVQAGGSLRLSCAASGLIFGYNAMGWYRQAPGKERELVAGISSGGSTNYADSVKGRFTISRDNAKNTVYLQMNSLKPEDTAVYYCNADGYLAERFVIRLDEYRDYDYWGQGTQVTVSS | low polyreactivity
QVQLVESGGGLVQAGGSLRLSCAASGLIFHHNAMGWYRQTPGKERELVAAISRSAGSTYYADSVKGRFTISRDNAKNTVYLQMKSLKPEDTAVYYCAKGPTPTSKYDTVGYGYWGQGTQVTVSS | low polyreactivity
QVQLVESGGGLVQAGGSLRLSCAASGLIFHPYTMGWYRQAPGKERELVAAITSTGGSTYYADSVKGRFTISRDNAKNTVYLQMNSLKPEDTAVYYCATDYGYYDYWGQGTQVTVSS | low polyreactivity
QVQLVESGGGLVQAGGSLRLSCAASGLIFHSYAMGWYRPAPGKERELVAAISRGGGSTYYADSVKGRFTISRDNAKNTVYLQMNSLKPEDTAVYYCAREYFTRYDYWGQGTQVTVSS | high polyreactivity
QVQLVESGGGLVQAGGSLRLSCAASGLIFHTYAMGWYRQAPGKERELVAAIRGGGSTNYADSVKGRFTISRDNAKNTVYLQMKSLKPEDTAVYYCNATWNLFPGVLDRYDYWGQGTQVTVSS | low polyreactivity
QVQLVESGGGLVQAGGSLRLSCAASGLIFIAYAMRWYRQAPGKERELVAAISSSGGSTYYADSVKGRFTISRDNAKNTVYLQMNSLKPEDTAVYYCAADRYAWGTGRYGYWGQGTQVTVSS | low polyreactivity
QVQLVESGGGLVQAGGSLRLSCAASGLIFIKYTMGWYRQAPGKERELVAVISGSGGSTYYADSVKGRFTISRDNAKNTVYLQMNSLKPEDTAVYYCAARSYALGYGGGYWGQGTQVTVSS | high polyreactivity
QVQLVESGGGLVQAGGSLRLSCAASGLIFISYAMGWYRQAPGKERELVAAITSTVGGTYYADSVKGRFTISRDNAKNTVYLQMNSLKPEDTAVYYCAAEISYRWWYNLGFTSFVYWGQGTLVTVSS | low polyreactivity
QVQLVESGGGLVQAGGSLRLSCAASGLIFIYNTMGWSRQAPGKERELVAAISGRGGSTYYADSVKGRFTISRDNAKNTVYLQMNSLKPEDTAVYYCAAQDTYHSYGLYSWGQGTQVTVSS | low polyreactivity
QVQLVESGGGLVQAGGSLRLSCAASGLIFKLYAMGWYRQAPGKERELVAAITDRGGSTYYADSVKGRFTISRDNAKNTVYLQMNSLKPEDTAVYYCAAPYAGWRDGGDYWGQGTQVTVSS | low polyreactivity
QVQLVESGGGLVQAGGSLRLSCAASGLIFKRNAMGWYRQAPGKERELVATISGSGGSTYYADSVKGRFTISRDNAKNTFYLQMNSLKPEDTAVYYCAAEASSVSYPYEYEYWGQGTQVTVSS | high polyreactivity
QVQLVESGGGLVQAGGSLRLSCAASGLIFKSYAMGWYRQAPGKERELVAAISSGGTTYYADSVKGRFTISRDNAKNTVYLQMNSLKPEDTAVYYCAAYFKQPVEPCEYWGQGTQVTVSS | high polyreactivity
QVQLVESGGGLVQAGGSLRLSCAASGLIFKTYTMGWYRQAPGKEREFVAAITTSGGSTYYADSVKGRFTISRDNAKNTVYLQMNSLKPEDTAVYYCAAVWWKSFQGSSYRMNYWGQGTQVTVSS | high polyreactivity
